“Also recorded” adds a separate entry of the source. Read-outs that look alike come from different tables or passages of the source.
Tests used:
[1] = system: ConA-induced glycopeptide bundle in DPPC bilayer membrane; assay: QCM binding isotherm, ConA-induced glycopeptide bundle; settings: QCM method, Langmuir fit, 25 °C
From the text: (§1) We determined binding amounts of proteins to the induced glycopeptide bundles by QCM measurements. […] The molecular weights of PNA and ConA were 98,000 [27] and […] [33], respectively, assuming that they formed tetramers.
We attempted quantitative analysis of the binding isotherms obtained from the QCM and electrochemical measurements. The curves in Figure 5 and Figure 7 were obtained by curve-fitting the experimental values using the Langmuir binding isotherm. It can be seen that both curves are in good agreement with the experimental values. […]
For the binding isotherm parameters obtained by the QCM measurements, the saturated binding amount, Wmax, for the protein used to induce the glycopeptide bundle was slightly larger, but a systematic relationship could not be seen in the binding constants, K. However, in the parameters obtained from the electrochemical method, the binding constant, K, to the target protein used to induce the glycopeptide bundle acting as a channel, was higher than that of other proteins, and the ΔImax value corresponding to the saturated binding amount was also remarkably larger. In addition, the selective detection of the target protein to the DPPC bilayer membrane with the target protein-induced glycopeptide bundle was evaluated from the ratio to the saturated binding amounts of other proteins. […]

[2] = system: PNA-induced glycopeptide bundle in DPPC bilayer membrane; type: binding; settings: Electrochemical method
From the text: The response current waves were very similar to those derived according to Equation (7) based on the equivalent circuit in Figure A2. The equivalent circuit was a parallel circuit consisting of a capacitor (DPPC bilayer membrane; Cmemb), a resistor (glycopeptide bundle not bound to the target protein as an open channel; Ropen), the serial circuit of a capacitor (bound target protein on glycopeptide bundle; Cprotein), and a resistor (target protein bound to the glycopeptide bundle as a closed channel; Rclose). First, we verified whether the electrochemical properties of the DPPC bilayer membrane with a target protein-induced glycopeptide bundle could be expressed by the proposed equivalent circuit. […] The sensing membrane was used containing the PNA-induced glycopeptide bundle, and the added protein was PNA. In the simulation, the resistances, Ropen = 6.00 × 10^4 Ω and Rclose = 1.73 × 10^4 Ω, and capacitances, Cmemb = 1.00 × 10^−6 F and Cprotein = 3.00 × 10^−6 F, were held constant. Furthermore, x (=ΔI/ΔImax) was calculated from the ratio of the current changes, ΔI (Figure A4), between before and after the protein was added at peak voltage applied, and the saturated current changes, ΔImax (Table 2); this is described below.
(§2) We attempted to detect the protein using the sensing membrane using the electrochemical method. From the simulation, the value of the increase in the current before and after protein addition at the peak voltage, ΔI, was proportional to the fraction of the closed channel that is protein bound glycopeptide bundle (Figure A4).
We attempted quantitative analysis of the binding isotherms obtained from the QCM and electrochemical measurements. The curves in Figure 5 and Figure 7 were obtained by curve-fitting the experimental values using the Langmuir binding isotherm. […] In the electrochemical measurement, the value of ΔI corresponds to the amount of the closed channel in the formed complex between the protein and glycopeptide bundle that acted as an ion channel. ΔImax corresponds to the total channel amount. Therefore, we used ΔI and ΔImax as the binding amount and saturated binding amount, respectively, for the Langmuir binding isotherm [36].

[3] = cited from earlier work
From the text: This implies that the proteins with the same sugar binding sites can be selectively recognized if their 3D-structures are different. […] The PNA-induced glycopeptide bundle has a spatial arrangement of galactose corresponded to its binding sites in PNA. Two ... || We used PNA (Wako Pure Chemical Industrials, Ltd., Osaka, Japan) and ConA (CALBIOCHEM, San Diego, CA, USA) as the target proteins.

[4] = system: ConA-induced glycopeptide bundle in DPPC bilayer membrane; assay: Electrochemical detection (peak current response, channel blockage), ConA-induced glycopeptide bundle; type: binding; settings: Electrochemical method, Langmuir fit, ±5 mV triangular voltage, 11.24 Hz, 0.1 M HEPES-Tris pH 7.4, 0.1 M KCl
From the text: as §2
The curves in Figure 5 and Figure 7 were obtained by curve-fitting the experimental values using the Langmuir binding isotherm. […] In the electrochemical measurement, the value of ΔI corresponds to the amount of the closed channel in the formed complex between the protein and glycopeptide bundle that acted as an ion channel. ΔImax corresponds to the total channel amount. Therefore, we used ΔI and ΔImax as the binding amount and saturated binding amount, respectively, for the Langmuir binding isotherm [36].
At this time, if a protein that specifically interacts with the sugar chains at the terminal of the glycopeptides is present, the glycopeptides are re-arranged in the membrane, and form specific binding site to the target protein on the glycopeptide bundle. The target protein was added to aqueous solution containing DPPC vesicle with glycopeptides and a spacer peptide in the bilayer membrane. The molar ratio of the added protein to the glycopeptides was 2. […] The vesicle solution was incubated at 60 °C above Tc for 15 min to form a glycopeptide bundle. […]

[5] = system: PNA-induced glycopeptide bundle in DPPC bilayer membrane; assay: QCM binding isotherm, PNA-induced glycopeptide bundle; settings: QCM method
From the text: as §1
We attempted quantitative analysis of the binding isotherms obtained from the QCM and electrochemical measurements. The curves in Figure 5 and Figure 7 were obtained by curve-fitting the experimental values using the Langmuir binding isotherm. It can be seen that both curves are in good agreement with the experimental values. […] In the electrochemical measurement, the value of ΔI corresponds to the amount of the closed channel in the formed complex between the protein and glycopeptide bundle that acted as an ion channel. ΔImax corresponds to the total channel amount. Therefore, we used ΔI and ΔImax as the binding amount and saturated binding amount, respectively, for the Langmuir binding isotherm.
For the binding isotherm parameters obtained by the QCM measurements, the saturated binding amount, Wmax, for the protein used to induce the glycopeptide bundle was slightly larger, but a systematic relationship could not be seen in the binding constants, K. However, in the parameters obtained from the electrochemical method, the binding constant, K, to the target protein used to induce the glycopeptide bundle acting as a channel, was higher than that of other proteins, and the ΔImax value corresponding to the saturated binding amount was also remarkably larger. In addition, the selective detection of the target protein to the DPPC bilayer membrane with the target protein-induced glycopeptide bundle was evaluated from the ratio to the saturated binding amounts of other proteins. For example, the value of the selectivity of PNA to ConA, of 1.34, in the QCM method of the PNA-induced sensing membrane was obtained from Wmax, PNA/Wmax, ConA.
We previously reported that heating a vesicle containing a peptide above its gel–liquid crystal transition temperature, Tc, increases the fluidity of the lipid bilayer membrane and allows the peptide to easily diffuse laterally through the membrane. At this time, if a protein that specifically interacts with the sugar chains at the terminal of the glycopeptides is present, the glycopeptides are re-arranged in the membrane, and form specific binding site to the target protein on the glycopeptide bundle. The target protein was added to aqueous solution containing DPPC vesicle with glycopeptides and a spacer peptide in the bilayer membrane. The molar ratio of the added protein to the glycopeptides was 2. The Tc of DPPC is 41 °C [41]. The vesicle solution was incubated at 60 °C above Tc for 15 min to form a glycopeptide bundle. […]

[6] = PNA-induced bundle, ratio of ΔImax
[7] = PNA-induced glycopeptide bundle in DPPC bilayer, Langmuir fit, ±5 mV triangular voltage, 11.24 Hz, 0.1 M HEPES-Tris pH 7.4, 0.1 M KCl
[8] = PNA-induced glycopeptide bundle in DPPC bilayer, Langmuir fit, 25 °C

B1: PNA: peanut lectin with specific binding site for galactose (protein, UniProt P02872 24-273, looked up)
Galactose-binding lectin: AETVSFNFNSFSEGNPAINFQGDVTVLSNGNIQLTNLNKVNSVGRVLYAMPVRIWSSATGNVASFLTSFSFEMKDIKDYDPADGIIFFIAPEDTQIPAGSIGGGTLGVSDTKGAGHFVGVEFDTYSNSEYNDPPTDHVGIDVNSVDSVKTVPWNSVSGAVVKVTVIYDSSTKTLSVAVTNDNGDITTIAQVVDLKAKLPERVKFGFSASGSLGGRQIHLIRSWSFTSTLITTTRRSIDNNEKKIMNMASA
- Binding constant, K [1]: 9.5e+08 M⁻¹
- Saturated binding amount, Wmax [1]: 0.21 ng
- Selectivity of PNA to BSA [2, 6]: 17.8
- Selectivity of PNA to ConA [2, 6]: 9.53
- Binding constant, K [2, 7]: 2.1e+09 M⁻¹
- Saturated current change, ΔImax [2, 7]: 0.41 μA
- Current response / recognition (in words) ([2]; PNA-induced sensing membrane): specific response; also recorded: very large current responses
- Sugar binding specificity [3]: specific binding sites for galactose
- Binding constant, K [4]: 1.1e+09 M⁻¹
- Saturated current change, ΔImax [4]: 0.035 μA
- Selectivity of PNA to BSA ([5]; PNA-induced bundle, ratio of Wmax): 2.47
- Binding preference in QCM (in words) ([5]; PNA-induced glycopeptide bundle): preferentially bound
- Binding constant, K [5, 8]: 8.2e+08 M⁻¹
- Saturated binding amount, Wmax [5, 8]: 0.47 ng
